Source: patent EP1141254B1

Legend:
Experiment in all cases: cell-based or functional assay
[1] = molecular target: 980903 (XM1): purified mutant of Bacillus sub. wild type xylanase expressed in E. coli
[2] = molecular target: 980603 (Röhm): purified preparation of Frimond's Belase xylanase (identical to Röhm's) (Bacillus subtilis)
[3] = molecular target: 980601 (BX): purified preparation of Danisco's new bacterial xylanase expressed in E. coli (Bacillus subtilis) (UniProt P18429)

Sequence of endogenous endo-β-1,4-xylanase inhibitor from wheat flour (main, form in doubt): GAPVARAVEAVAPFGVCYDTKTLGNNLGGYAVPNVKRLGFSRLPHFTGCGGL
Sequence of endogenous endo-β-1,4-xylanase inhibitor from wheat flour (main, form in doubt): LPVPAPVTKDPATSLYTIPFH

**Q.** Which residual activity of XM1 after incubation with flour extract, relative to that of XM2 [1] does the source give for “endogenous endo-β-1,4-xylanase inhibitor from wheat flour” here?
**A.** 2.5 fold

**Q.** And the Inhibition, % (inhibitor extracted from flour 98002) [2]?
**A.** 60.8%

**Q.** And the Inhibition, % (inhibitor extracted from flour 98026) [2]?
**A.** 61.3%

**Q.** What about the Rest act., % (average of flours 98002 and 98026) [2] of the same substance?
**A.** 39%

**Q.** And the Rest act., % (inhibitor extracted from flour 98002) [2]?
**A.** 39.2%

**Q.** What about the Rest act., % (inhibitor extracted from flour 98026) [2] of the same substance?
**A.** 38.7%

**Q.** And the Inhibition, % (inhibitor extracted from flour 98002) [3]?
**A.** 67%

**Q.** What about the Inhibition, % (inhibitor extracted from flour 98026) [3] of the same substance?
**A.** 75%

**Q.** And the OD 590 in the inhibitor assay with inhibitor extract from flour 98026 (without inhibitor: 0.675) [3]?
**A.** 0.165 OD 590

**Q.** What about the Residual activity, % (inhibitor extract from flour 98026) [3] of the same substance?
**A.** 24.4%

**Q.** And the Rest act., % (average of flours 98002 and 98026) [3]?
**A.** 29%

**Q.** And the Rest act., % (inhibitor extracted from flour 98002) [3]?
**A.** 33%

**Q.** And the Rest act., % (inhibitor extracted from flour 98026) [3]?
**A.** 25%

**Q.** What about the Vmax from the Lineweaver-Burk plot of xylanase 980601 with and without inhibitor (relative OD 590) (relative OD 590) [3] of the same substance?
**A.** 1.19
